Experimental data: patent publication US20140134737, “Alternative Splicing Modulators and Splice Variants and Their Use in the Control and Detection of Pluripotency and Differentiation” (Governing Council of the University of Toronto, published 2014)

T1: FOXP1 forkhead domain (canonical, exon 18) (Homo sapiens, UniProt Q9H334 SEQ:465-555)
T1 sequence: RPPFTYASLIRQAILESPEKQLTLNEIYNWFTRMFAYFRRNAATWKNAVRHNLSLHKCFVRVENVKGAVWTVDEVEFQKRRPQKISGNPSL

T2: FOXP1-ES forkhead domain (exon 18b) (Homo sapiens)
T2 chain: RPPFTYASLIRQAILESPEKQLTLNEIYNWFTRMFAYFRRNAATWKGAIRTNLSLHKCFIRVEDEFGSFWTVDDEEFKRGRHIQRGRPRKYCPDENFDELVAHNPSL


Legend:
Conditions in all cases: tags: GST fusion; label: radiolabeled
[1] = biological target: T1, FOXP1 forkhead domain (canonical, exon …); assay: EMSA; no appreciable shift
Procedure: (§1) FIG. 2(C) is an Electrophoresis Mobility Shift Assay (EMSA) validating PBM-derived consensus DNA binding sites for FOXP1 and FOXP1-ES. Radiolabeled dsDNA probes containing two copies of GTAAACAA (top left panel), AATAAACA (top middle panel) or CGATACAA (top right panel), or two copies of mutant versions of these sequences GGACACAA (bottom left panel), AATGGACA (bottom middle panel) or CGCGACAT (bottom right panel) were incubated in the absence (lanes 1, 9 and 19) or in the presence of increasing amounts (0.2 to 3.2 pmol) of recombinant GST-FOXP1 or GST-FOXP1-ES proteins. Positions mutated in the probe sequences are underlined. Shifted protein-dsDNA complexes are indicated by arrows and free dsDNA probe is indicated by an asterisk.

[2] = biological target: T2, FOXP1-ES forkhead domain (exon 18b); assay: EMSA; no appreciable shift
Procedure: as §1

[3] = biological target: T2, FOXP1-ES forkhead domain (exon 18b); assay: EMSA; preferentially bound by FOXP1-ES
Procedure: as §1

[4] = biological target: T1, FOXP1 forkhead domain (canonical, exon …); assay: EMSA; no appreciable shift; remark: listed apart in the source
Procedure: (§2) Radiolabeled dsDNA probes containing two copies of each 8-mer (top panels), or two copies of mutant versions of these sequences CCACTCAA, ATGCAGGA, CTATCCAA and AACCCCAA (bottom panels) were incubated in the absence (lanes 1, 10, 19 and 28) or in the presence of increasing amounts (0.2 to 3.2 pmol) of recombinant GST-FOXP1 or GST-FOXP1-ES proteins. Positions mutated in the probe sequences are underlined. Shifted protein-dsDNA complexes are indicated by arrows and free dsDNA probe is indicated by an asterisk.

[5] = biological target: T2, FOXP1-ES forkhead domain (exon 18b); assay: EMSA; no appreciable shift
Procedure: as §2

| Binder | binding result [1] | binding result [2] | binding result [3] | binding result [4] | binding result [5] |
| --- | --- | --- | --- | --- | --- |
| GGACACAA x2 mutant (dsDNA) DNA 1: GGACACAACCGGACACAA DNA 2: TTGTGTCCGGTTGTGTCC | no binding | no binding |  |  |  |
| AATGGACA x2 mutant (dsDNA) DNA 1: AATGGACACCAATGGACA DNA 2: TGTCCATTGGTGTCCATT | no binding | no binding |  |  |  |
| CGCGACAT x2 mutant (dsDNA) DNA 1: CGCGACATCCCGCGACAT DNA 2: ATGTCGCGGGATGTCGCG | no binding | no binding |  |  |  |
| AATAAACA x2 probe (dsDNA) DNA 1: AATAAACACCAATAAACA DNA 2: TGTTTATTGGTGTTTATT |  |  | binds |  |  |
| CCACTCAA x2 mutant (dsDNA) DNA 1: CCACTCAACCCCACTCAA DNA 2: TTGAGTGGGGTTGAGTGG |  |  |  | no binding | no binding |
| ATGCAGGA x2 mutant (dsDNA) DNA 1: ATGCAGGACCATGCAGGA DNA 2: TCCTGCATGGTCCTGCAT |  |  |  | no binding | no binding |
| CTATCCAA x2 mutant (dsDNA) DNA 1: CTATCCAACCCTATCCAA DNA 2: TTGGATAGGGTTGGATAG |  |  |  | no binding | no binding |
| AACCCCAA x2 mutant (dsDNA) DNA 1: AACCCCAACCAACCCCAA DNA 2: TTGGGGTTGGTTGGGGTT |  |  |  | no binding | no binding |
